These results are taken from the Human Domainome abundance scans (Beltran et al. 2025).

First the molecules themselves.
B1: SH3 and PX domain-containing protein 2B, residues 155 to 209; numbered along this chain, A1X283 (parent)
chain: EQYVVVANYQKQESSEISLSVGQVVDIIEKNESGWWFVSTAEEQGWVPATCLEGQ
B2: Intersectin-1, residues 1156 to 1213; numbered along this chain, Q15811 (parent)
chain: AVCQVIGMYDYTAQNDDELAFNKGQIINVLNKEDPDWWKGEVNGQVGLFPSNYVKLTT

± gives the uncertainty stated by the source.

Variants of B1 are the subject of one data set. Description: abundance fitness (aPCA) (normalised: wild type 0, dead -1); higher = more abundant; growth selection in yeast, the domain comes from the species named. The following applies: Homo sapiens.
As to EQYVVVANYQKQESSEISLSVGQVVDIIEKNESGWWFVSTAEEQGWVPATCLEGH [Q55H], the abundance fitness was -0.004 ± 0.45. The same measure, in the same setting: then EQYVVVANYQKQESSEISLSVGQVVDIIEKNESGWWFVSTAEEQGWVPATCLEGN [Q55N], with -0.551 ± 0.29; and EQYVVVANYQKQESSEISLSVGQVVDIIEKNESGWWFVSTAEEQGWVPATCLEGI [Q55I], with -0.099 ± 0.11.

Turning to EQYVVVANYQKQESSEISLSVGQVVDIIEKNESGWWFVSTAEEQGWVPATCLEGV [Q55V], the abundance fitness was -0.44 ± 0.17. EQYVVVANYQKQESSEISLSVGQVVDIIEKNESGWWFVSTAEEQGWVPATCLEGG [Q55G]: the abundance fitness is -0.229 ± 0.16.

As for EQYVVVANYQKQESSEISLSVGQVVDIIEKNESGWWFVSTAEEQGWVPATCLEGL [Q55L], the abundance fitness was -0.138 ± 0.15. Regarding EQYVVVANYQKQESSEISLSVGQVVDIIEKNESGWWFVSTAEEQGWVPATCLEGP [Q55P], the abundance fitness was determined as 0.045 ± 0.18. On the same count and under the same terms, the value for EQYVVVANYQKQESSEISLSVGQVVDIIEKNESGWWFVSTAEEQGWVPATCLEGR [Q55R] was 0.054 ± 0.12; that for EQYVVVANYQKQESSEISLSVGQVVDIIEKNESGWWFVSTAEEQGWVPATCLEGY [Q55Y] was -0.267 ± 0.19; that for EQYVVVANYQKQESSEISLSVGQVVDIIEKNESGWWFVSTAEEQGWVPATCLEGS [Q55S] was -0.133 ± 0.12. For the variant EQYVVVANYQKQESSEISLSVGQVVDIIEKNESGWWFVSTAEEQGWVPATCLEGE [Q55E], the abundance fitness was -0.341 ± 0.44.

With EQYVVVANYQKQESSEISLSVGQVVDIIEKNESGWWFVSTAEEQGWVPATCLEGT [Q55T], the abundance fitness is -0.07 ± 0.27. On the same count and under the same terms, the value for EQYVVVANYQKQESSEISLSVGQVVDIIEKNESGWWFVSTAEEQGWVPATCLEGW [Q55W] was -0.329 ± 0.3. On the same count and under the same terms, the value for EQYVVVANYQKQESSEISLSVGQVVDIIEKNESGWWFVSTAEEQGWVPATCLEGM [Q55M] was -0.233 ± 0.25.

The next data set covers variants of B2. Described as above. To be noted: Homo sapiens.
On to AVSQVIGMYDYTAQNDDELAFNKGQIINVLNKEDPDWWKGEVNGQVGLFPSNYVKLTT [C3S], for which the abundance fitness is -0.452 ± 0.1. Same read-out and setting: the value for AVQQVIGMYDYTAQNDDELAFNKGQIINVLNKEDPDWWKGEVNGQVGLFPSNYVKLTT [C3Q] was -0.606 ± 0.16; that for AVNQVIGMYDYTAQNDDELAFNKGQIINVLNKEDPDWWKGEVNGQVGLFPSNYVKLTT [C3N] was -0.252 ± 0.17; that for AVLQVIGMYDYTAQNDDELAFNKGQIINVLNKEDPDWWKGEVNGQVGLFPSNYVKLTT [C3L] was -0.387 ± 0.11. Same read-out and setting: the value for AVKQVIGMYDYTAQNDDELAFNKGQIINVLNKEDPDWWKGEVNGQVGLFPSNYVKLTT [C3K] was -0.597 ± 0.16; that for AVTQVIGMYDYTAQNDDELAFNKGQIINVLNKEDPDWWKGEVNGQVGLFPSNYVKLTT [C3T] was -0.123 ± 0.12. For the variant AVGQVIGMYDYTAQNDDELAFNKGQIINVLNKEDPDWWKGEVNGQVGLFPSNYVKLTT [C3G], the abundance fitness is -0.308 ± 0.079. AVRQVIGMYDYTAQNDDELAFNKGQIINVLNKEDPDWWKGEVNGQVGLFPSNYVKLTT [C3R]: the abundance fitness is -0.555 ± 0.1. Regarding AVDQVIGMYDYTAQNDDELAFNKGQIINVLNKEDPDWWKGEVNGQVGLFPSNYVKLTT [C3D], the abundance fitness is -0.033 ± 0.12. On the same count and under the same terms, then AVFQVIGMYDYTAQNDDELAFNKGQIINVLNKEDPDWWKGEVNGQVGLFPSNYVKLTT [C3F], with -0.155 ± 0.14; and AVVQVIGMYDYTAQNDDELAFNKGQIINVLNKEDPDWWKGEVNGQVGLFPSNYVKLTT [C3V], with -0.374 ± 0.094; and AVMQVIGMYDYTAQNDDELAFNKGQIINVLNKEDPDWWKGEVNGQVGLFPSNYVKLTT [C3M], with -0.094 ± 0.12.

For AVAQVIGMYDYTAQNDDELAFNKGQIINVLNKEDPDWWKGEVNGQVGLFPSNYVKLTT [C3A], the abundance fitness was -0.463 ± 0.12. The same measure, in the same setting: the value for AVYQVIGMYDYTAQNDDELAFNKGQIINVLNKEDPDWWKGEVNGQVGLFPSNYVKLTT [C3Y] was -0.184 ± 0.091; that for AVHQVIGMYDYTAQNDDELAFNKGQIINVLNKEDPDWWKGEVNGQVGLFPSNYVKLTT [C3H] was -0.706 ± 0.18; that for AVPQVIGMYDYTAQNDDELAFNKGQIINVLNKEDPDWWKGEVNGQVGLFPSNYVKLTT [C3P] was -0.901 ± 0.17. On the same count and under the same terms, the value for AVWQVIGMYDYTAQNDDELAFNKGQIINVLNKEDPDWWKGEVNGQVGLFPSNYVKLTT [C3W] was -0.449 ± 0.13. For the variant AVCFVIGMYDYTAQNDDELAFNKGQIINVLNKEDPDWWKGEVNGQVGLFPSNYVKLTT [Q4F], the abundance fitness was -0.719 ± 0.26. Still for that read-out and setting: then AVCHVIGMYDYTAQNDDELAFNKGQIINVLNKEDPDWWKGEVNGQVGLFPSNYVKLTT [Q4H], with -0.373 ± 0.21; and AVCSVIGMYDYTAQNDDELAFNKGQIINVLNKEDPDWWKGEVNGQVGLFPSNYVKLTT [Q4S], with -0.277 ± 0.1. Same read-out and setting: then AVCYVIGMYDYTAQNDDELAFNKGQIINVLNKEDPDWWKGEVNGQVGLFPSNYVKLTT [Q4Y], with -0.487 ± 0.17; and AVCGVIGMYDYTAQNDDELAFNKGQIINVLNKEDPDWWKGEVNGQVGLFPSNYVKLTT [Q4G], with -0.6 ± 0.12. As to AVCIVIGMYDYTAQNDDELAFNKGQIINVLNKEDPDWWKGEVNGQVGLFPSNYVKLTT [Q4I], the abundance fitness was -0.391 ± 0.28. As to AVCTVIGMYDYTAQNDDELAFNKGQIINVLNKEDPDWWKGEVNGQVGLFPSNYVKLTT [Q4T], the abundance fitness is -0.207 ± 0.1. The same measure, in the same setting: the value for AVCPVIGMYDYTAQNDDELAFNKGQIINVLNKEDPDWWKGEVNGQVGLFPSNYVKLTT [Q4P] was -0.817 ± 0.17; that for AVCRVIGMYDYTAQNDDELAFNKGQIINVLNKEDPDWWKGEVNGQVGLFPSNYVKLTT [Q4R] was -0.354 ± 0.089; that for AVCCVIGMYDYTAQNDDELAFNKGQIINVLNKEDPDWWKGEVNGQVGLFPSNYVKLTT [Q4C] was -0.57 ± 0.19. On the same count and under the same terms, then AVCKVIGMYDYTAQNDDELAFNKGQIINVLNKEDPDWWKGEVNGQVGLFPSNYVKLTT [Q4K], with -0.236 ± 0.13; and AVCAVIGMYDYTAQNDDELAFNKGQIINVLNKEDPDWWKGEVNGQVGLFPSNYVKLTT [Q4A], with -0.826 ± 0.17; and AVCLVIGMYDYTAQNDDELAFNKGQIINVLNKEDPDWWKGEVNGQVGLFPSNYVKLTT [Q4L], with -0.538 ± 0.12. The same measure, in the same setting: the value for AVCEVIGMYDYTAQNDDELAFNKGQIINVLNKEDPDWWKGEVNGQVGLFPSNYVKLTT [Q4E] was -0.629 ± 0.17. As to AVCDVIGMYDYTAQNDDELAFNKGQIINVLNKEDPDWWKGEVNGQVGLFPSNYVKLTT [Q4D], the abundance fitness was -1.15 ± 0.49.
